Results from patent publication US11035003B2, “TRPC6 involved in glomerulonephritis” (Duke University, priority 2005, dated 2021).
Numbering of substitutions follows the chain as printed.

How the values were obtained:
TRPC6^P112Q = biological target: T1, TRPC6^P112Q (Homo sapiens, UniProt Q9Y210, P112Q); assay: Fura-2 single cell imaging of divalent cations in HEK 293 cells transfected with TRPC6^P112Q; format: cell-based
T1 construct: expressed in transfected cells; host or cells: HEK 293
T1 sequence (Q9Y210 1-931 P112Q): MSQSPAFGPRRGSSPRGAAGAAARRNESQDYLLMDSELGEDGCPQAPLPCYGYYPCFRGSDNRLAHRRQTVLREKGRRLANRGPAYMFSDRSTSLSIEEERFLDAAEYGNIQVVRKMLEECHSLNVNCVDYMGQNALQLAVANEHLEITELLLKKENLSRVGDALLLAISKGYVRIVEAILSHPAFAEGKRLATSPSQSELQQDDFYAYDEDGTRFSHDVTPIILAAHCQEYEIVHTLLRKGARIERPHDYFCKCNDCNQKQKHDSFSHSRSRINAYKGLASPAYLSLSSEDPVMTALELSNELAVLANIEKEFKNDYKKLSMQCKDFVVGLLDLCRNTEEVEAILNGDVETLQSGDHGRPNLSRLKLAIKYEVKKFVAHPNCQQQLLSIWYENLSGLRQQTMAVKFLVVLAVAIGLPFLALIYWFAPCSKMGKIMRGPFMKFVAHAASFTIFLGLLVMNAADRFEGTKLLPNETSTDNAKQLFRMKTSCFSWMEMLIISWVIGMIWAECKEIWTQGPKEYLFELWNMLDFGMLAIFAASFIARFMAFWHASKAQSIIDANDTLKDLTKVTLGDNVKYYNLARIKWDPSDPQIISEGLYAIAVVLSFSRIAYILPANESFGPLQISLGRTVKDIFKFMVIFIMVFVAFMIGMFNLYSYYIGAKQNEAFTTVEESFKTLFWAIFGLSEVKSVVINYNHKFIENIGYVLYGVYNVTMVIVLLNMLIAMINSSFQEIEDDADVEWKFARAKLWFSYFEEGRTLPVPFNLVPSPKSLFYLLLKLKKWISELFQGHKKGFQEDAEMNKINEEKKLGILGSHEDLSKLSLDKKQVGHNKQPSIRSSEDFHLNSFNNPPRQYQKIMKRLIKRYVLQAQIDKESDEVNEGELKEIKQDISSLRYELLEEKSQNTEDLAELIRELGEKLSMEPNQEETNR
From the text: (§1) To determine the effect of the P112Q mutation on TRPC6 function, we studied HEK 293 cells (human kidney cells) transfected with mutant (TRPC6^P112Q) or wild-type (WT) TRPC6 (14). The WT TRPC6 was cloned from a human kidney cDNA library. […] Diacylglycerol (DAG) is a potent activator of TRPC6 (15). We therefore measured the intracellular calcium concentration ([Ca^+2]i) using Fura fluorescence in HEK 293 cells expressing either the WT or TRPC6^P112Q after exposure to the DAG analogue OAG (1-oleoyl-2-acetyl-sn-glycerol). OAG perfusion increased late Ca^+2 transients in cells transfected with WT TRPC6 as expected (FIG. 3A and FIG. 7).
(§2) Angiotensin II acting through its AT1 receptor plays a critical role in the generation of proteinuria and progression of kidney injury in a number of kidney diseases including FSGS (16). AT1 receptors, coupled to heterotrimeric G nucleotide-binding proteins, activate phospholipase C-beta isoforms that hydrolyze phosphatidylinositol 4,5-bisphosphate (PIP2). This triggers production of inositol 1,4,5-trisphosphate (InsP3) and diacylglycerol (DAG) releases internal calcium stores and activates Ca^+2 entry, respectively (17). We examined whether the P112Q mutation would affect angiotensin II-dependent (i.e., receptor-operated) calcium signaling. HEK 293 cells were co-transfected with the AT1 angiotensin receptor (AT-YFP) and either WT TRPC6 or TRPC6^P112Q. [Ca^+2]i changes were measured after exposure to angiotensin II (FIG. 3B and FIG. 8); similar to the OAG experiments, the peak angiotensin II-stimulated [Ca^+2]i was higher in cells expressing the mutant protein compared with WT controls ([Ca^2+]i TRPC6^P112Q=640±66 nM vs. [Ca^2+]i WT TRPC6=357±46 nM; p<0.05). To establish that the P112Q mutation is not isolated to TRPC6 channels, we introduced the analogous mutation into the TRPC3 channel.
(§3) HEK 293 cells were plated on glass bottom plates at near confluence. After 24 hours, the cells were transfected with plasmids in the presence of lipofectamine 2000 (Invitrogen). Here 3 μg of TRPC6 plasmid (WT or mutant) and 1 μg of ATR-YFP plasmid were incubated for 4 hours in Optimem 2000 media (Gibco) and then changed to 10% FBS/DMEM media. For biotinylation experiments, 24 hours after transfection with TRPC6-V5 and TRPC6^P112Q-V5 constructs, cells were washed with ice cold PBS and incubated with sulfo-NHS-SS-Biotin (2 mg/ml) (Pierce) for 30-min at 4° C. After 3 washes with PBS with 10 mM glycine, cells were incubated with RIPA lysis buffer for 30-min at 4° C. Lysates were passed through a 20 G and then 25 G needle for 25 passes. Samples were then collected by centrifuging at 20K G for 15-min at 4° C. Supernatants were then incubated overnight with streptavidin agaraose beads (Pierce), washed 3 times and then heated to 37° C. […]

WT TRPC6 = biological target: T2, WT TRPC6 (Homo sapiens, UniProt Q9Y210); assay: Fura-2 single cell imaging of divalent cations in HEK 293 cells transfected with WT TRPC6; format: cell-based
T2 construct: expressed in transfected cells; host or cells: HEK 293
T2 sequence (Q9Y210 1-931): T1 sequence (Q9Y210 1-931 P112Q) with Q112P
From the text: as §1, §2, §3

OAG-stimulated barium transients, 4340/380 ratio (TRPC6^P112Q; HEK293 cells transfected with TRPC6P112Q, Fura-2, barium as surrogate for calcium)	Peak intracellular calcium concentration [Ca2+]i after OAG perfusion (TRPC6^P112Q; HEK 293 cells transfected with TRPC6^P112Q, 100 μM OAG, Fura fluorescence) [nM]	Peak intracellular calcium concentration [Ca2+]i after OAG perfusion (WT TRPC6; HEK 293 cells transfected with WT TRPC6, 100 μM OAG, Fura fluorescence) [nM]	OAG-stimulated barium transients, ratio (WT TRPC6; HEK293 cells transfected with WT TRPC6, Fura-2, barium as surrogate for calcium)	Molecule	Peak angiotensin II-stimulated [Ca2+]i (TRPC6^P112Q; HEK 293 cells co-transfected with AT1 receptor (AT-YFP) and TRPC6^P112Q, angiotensin II 1 μM) [nM]	Duration of angiotensin II-induced barium signal (TRPC6^P112Q; HEK 293 cells co-transfected with AT1 receptor and TRPC6^P112Q) [s]	Peak angiotensin II-stimulated [Ca2+]i (WT TRPC6; HEK 293 cells co-transfected with AT1 receptor (AT-YFP) and WT TRPC6, angiotensin II 1 μM) [nM]	Duration of angiotensin II-induced barium signal (WT TRPC6; HEK 293 cells co-transfected with AT1 receptor and WT TRPC6) [s]
–	–	–	–	angiotensin II: ligand acting through its AT1 receptor, used to stimulate receptor-operated calcium signaling (DRVYIHPF; Angiotensin-2; UniProt P01019 25-32, looked up)	640 ± 66	1054 ± 282	357 ± 46	271 ± 121
1.30±0.7	181 ± 25	106 ± 15	0.49±0.18	CCCCCCCC/C=C\CCCCCCCC(=O)OC[C@H](CO)OC(C)=O [OAG, 1-oleoyl-2-acetyl-sn-glycerol]	–	–	–	–
